Test results as given in publication PMC4002122 (Chemical Research in Toxicology, 2014).

Assays:
UGT1A9 = target: T1, UGT1A9 (Homo sapiens, UniProt O60656); conditions: cited from earlier work; for Km: affinity of UGT1A9 for tRes and natural analogs
T1 sequence (O60656 26-530): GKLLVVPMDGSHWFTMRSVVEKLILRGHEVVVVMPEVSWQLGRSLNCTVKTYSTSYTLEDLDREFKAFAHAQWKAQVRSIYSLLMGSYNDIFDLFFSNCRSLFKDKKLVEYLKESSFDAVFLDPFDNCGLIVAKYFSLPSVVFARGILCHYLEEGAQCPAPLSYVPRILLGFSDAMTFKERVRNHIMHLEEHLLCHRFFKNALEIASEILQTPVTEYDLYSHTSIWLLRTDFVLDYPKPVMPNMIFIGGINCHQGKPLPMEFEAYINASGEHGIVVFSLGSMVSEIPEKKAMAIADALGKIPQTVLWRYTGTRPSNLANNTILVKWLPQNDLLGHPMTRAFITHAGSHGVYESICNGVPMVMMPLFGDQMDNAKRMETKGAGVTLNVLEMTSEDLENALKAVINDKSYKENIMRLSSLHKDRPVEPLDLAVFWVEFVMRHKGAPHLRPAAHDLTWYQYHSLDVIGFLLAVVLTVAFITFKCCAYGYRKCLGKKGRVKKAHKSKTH

UGT1A1 = target: T2, UGT1A1 (Homo sapiens, UniProt P22309); conditions: tRes-3-O-glucuronidation; cited from earlier work
T2 sequence (P22309 26-533): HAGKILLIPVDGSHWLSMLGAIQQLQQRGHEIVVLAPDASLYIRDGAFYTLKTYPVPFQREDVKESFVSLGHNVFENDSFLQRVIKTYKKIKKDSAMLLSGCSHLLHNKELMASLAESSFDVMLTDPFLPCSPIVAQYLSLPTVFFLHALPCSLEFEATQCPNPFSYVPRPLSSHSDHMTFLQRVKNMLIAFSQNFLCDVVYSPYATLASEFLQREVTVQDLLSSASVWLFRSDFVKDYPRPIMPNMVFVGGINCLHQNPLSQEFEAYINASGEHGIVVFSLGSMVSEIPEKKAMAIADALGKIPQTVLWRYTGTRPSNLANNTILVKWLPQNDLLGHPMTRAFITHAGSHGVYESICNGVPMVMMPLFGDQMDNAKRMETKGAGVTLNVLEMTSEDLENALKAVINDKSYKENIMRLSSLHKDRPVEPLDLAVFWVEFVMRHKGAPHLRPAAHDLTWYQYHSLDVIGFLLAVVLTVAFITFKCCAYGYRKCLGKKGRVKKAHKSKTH

[1] = substrate: COc1ccc(C=Cc2cc(OC)cc(OC)c2/C=N/O)cc1; assay: Steady state kinetics of glucuronidation by recombinant UGT1A1; format: in vitro ADME, human; conditions: other: NI-ST-05–N–O-gluc formation; estimated based on an incomplete data set
[2] = substrate: COc1ccc(/C=C(/C(=O)O)c2cc(OC)c(OC)c(OC)c2)cc1O; assay: Steady state kinetics of glucuronidation by recombinant UGT1A7; format: in vitro ADME, human; conditions: other: NI-12a-O-gluc formation, UDP-GlcUA 3 mM, 60 min, 37 °C
[3] = substrate: COc1ccc(/C=C(/C(=O)O)c2cc(OC)c(OC)c(OC)c2)cc1O; assay: Steady state kinetics of glucuronidation by recombinant UGT1A10; format: in vitro ADME, human; conditions: other: NI-12a-O-gluc formation; UDP-GlcUA 3 mM, 60 min, 37 °C
[4] = substrate: COc1ccc(C=Cc2cc(OC)cc(OC)c2/C=N/O)cc1; assay: as above; format: in vitro ADME, human; conditions: other: NI-ST-05–N–O-gluc formation; Hill equation (S50)
[5] = substrate: COc1ccc(/C=C(/C(=O)O)c2cc(OC)c(OC)c(OC)c2)cc1O; assay: Steady state kinetics of glucuronidation by recombinant UGT1A8; format: in vitro ADME, human; conditions: other: NI-12a-O-gluc formation, UDP-GlcUA 3 mM, 60 min, 37 °C
[6] = substrate: COc1ccc(/C=C(/C(=O)O)c2cc(OC)c(OC)c(OC)c2)cc1O; assay: Steady state kinetics of glucuronidation by recombinant UGT1A9; format: in vitro ADME, human; conditions: other: NI-12a-O-gluc formation, UDP-GlcUA 3 mM, 60 min, 37 °C

CC(C)/C=C/c1c(O)cc(/C=C/c2ccc(O)cc2)cc1O [tA3]
Km (UGT1A9): 21 µM

Oc1ccc(/C=C/c2cc(O)cc(O)c2)cc1 [tRes, trans-3,5,4′-trihydroxystilbene]
Km (UGT1A9): 2.5 µM | Vmax (UGT1A9; tRes-3-O-glucuronide formation): 2.5 nmol/mg/min | Vmax (UGT1A1): 31 nmol/mg/min

trans-arachidin-1 [tA1]
Km (UGT1A9): 190 µM

B1: UGT1A1 (Homo sapiens) (protein)
chain: T2 sequence (P22309 26-533)
Vmax [1]: 0.00021 ± 2e-05 µmol/min/mg

B2: UGT1A7 (Homo sapiens) (protein)
chain: GKLLVVPMDGSHWFTMQSVVEKLILRGHEVVVVMPEVSWQLGRSLNCTVKTYSTSYTLEDQDREFMVFADARWTAPLRSAFSLLTSSSNGIFDLFFSNCRSLFNDRKLVEYLKESCFDAVFLDPFDACGLIVAKYFSLPSVVFARGIFCHYLEEGAQCPAPLSYVPRLLLGFSDAMTFKERVWNHIMHLEEHLFCPYFFKNVLEIASEILQTPVTAYDLYSHTSIWLLRTDFVLEYPKPVMPNMIFIGGINCHQGKPVPMEFEAYINASGEHGIVVFSLGSMVSEIPEKKAMAIADALGKIPQTVLWRYTGTRPSNLANNTILVKWLPQNDLLGHPMTRAFITHAGSHGVYESICNGVPMVMMPLFGDQMDNAKRMETKGAGVTLNVLEMTSEDLENALKAVINDKSYKENIMRLSSLHKDRPVEPLDLAVFWVEFVMRHKGAPHLRPAAHDLTWYQYHSLDVIGFLLAVVLTVAFITFKCCAYGYRKCLGKKGRVKKAHKSKTH
Km [2]: 62 ± 43 µM | Vmax [2]: 2.2 ± 0.77 nmol/mg/min | Vmax/Km [2]: 35 µL/min/mg

B3: UGT1A10 (Homo sapiens) (protein)
chain: GKLLVVPMDGSHWFTMQSVVEKLILRGHEVVVVMPEVSWQLERSLNCTVKTYSTSYTLEDQNREFMVFAHAQWKAQAQSIFSLLMSSSSGFLDLFFSHCRSLFNDRKLVEYLKESSFDAVFLDPFDTCGLIVAKYFSLPSVVFTRGIFCHHLEEGAQCPAPLSYVPNDLLGFSDAMTFKERVWNHIVHLEDHLFCQYLFRNALEIASEILQTPVTAYDLYSHTSIWLLRTDFVLDYPKPVMPNMIFIGGINCHQGKPLPMEFEAYINASGEHGIVVFSLGSMVSEIPEKKAMAIADALGKIPQTVLWRYTGTRPSNLANNTILVKWLPQNDLLGHPMTRAFITHAGSHGVYESICNGVPMVMMPLFGDQMDNAKRMETKGAGVTLNVLEMTSEDLENALKAVINDKSYKENIMRLSSLHKDRPVEPLDLAVFWVEFVMRHKGAPHLRPAAHDLTWYQYHSLDVIGFLLAVVLTVAFITFKCCAYGYRKCLGKKGRVKKAHKSKTH
Km [3]: 500 ± 75 µM | Vmax [3]: 3.5 ± 0.24 nmol/mg/min | Vmax/Km [3]: 7 µL/min/mg | K0.5 [4]: 6.2 ± 0.35 µM | Vmax [4]: 0.00065 µmol/min/mg | Vmax/Km [4]: 105 µL/min/mg

B4: UGT1A8 (Homo sapiens) (protein)
chain: GKLLVVPMDGSHWFTMQSVVEKLILRGHEVVVVMPEVSWQLGKSLNCTVKTYSTSYTLEDLDREFMDFADAQWKAQVRSLFSLFLSSSNGFFNLFFSHCRSLFNDRKLVEYLKESSFDAVFLDPFDACGLIVAKYFSLPSVVFARGIACHYLEEGAQCPAPLSYVPRILLGFSDAMTFKERVRNHIMHLEEHLFCQYFSKNALEIASEILQTPVTAYDLYSHTSIWLLRTDFVLDYPKPVMPNMIFIGGINCHQGKPLPMEFEAYINASGEHGIVVFSLGSMVSEIPEKKAMAIADALGKIPQTVLWRYTGTRPSNLANNTILVKWLPQNDLLGHPMTRAFITHAGSHGVYESICNGVPMVMMPLFGDQMDNAKRMETKGAGVTLNVLEMTSEDLENALKAVINDKSYKENIMRLSSLHKDRPVEPLDLAVFWVEFVMRHKGAPHLRPAAHDLTWYQYHSLDVIGFLLAVVLTVAFITFKCCAYGYRKCLGKKGRVKKAHKSKTH
Km [5]: 240 ± 76 µM | Vmax [5]: 6.0 ± 1.3 nmol/mg/min | Vmax/Km [5]: 25 µL/min/mg

B5: UGT1A9 (Homo sapiens) (protein)
chain: T1 sequence (O60656 26-530)
Km [6]: 240 ± 40 µM | Vmax [6]: 0.0083 µmol/min/mg | Vmax/Km [6]: 35 µL/min/mg
